Test results reported in paper PMC3234246, “HIV-1 Capsid-Cyclophilin Interactions Determine Nuclear Import Pathway, Integration Targeting and Replication Efficiency” (PLoS Pathogens, 2011).

Target: T1, cyclophilin A (CypA), human (human, UniProt P62937 1-165)
T1 construct: human cyclophilin A (peptidyl-prolyl cis-trans isomerase A)
Test: ITC; recombinant CypA or Nup358Cyp against recombinant CA^NTD, without cyclosporine; done as described in ref. 25
Details: both partners purified

B1: SIVmac capsid N-terminal domain (CA^NTD) (domain or fragment)
chain: not shown
modifications: No candidate fits. The accession (SIVmac Gag, isolate Mm142-83) is from memory because the isolate is not printed. Limits are CA residues 1-144, matching HIV-1 CA 1-146 (pdb 1M9D entity 2). Check …
- Kd: ~800 µM
